Results published in PMC5941314, “Structural insights into the nanomolar affinity of RING E3 ligase ZNRF1 for Ube2N and its functional implications” (Biochemical Journal, 2018).

T1: ZNRF1^CTD (C-terminal domain of ZNRF1, residues 139–227) (UniProt Q8ND25 139-227)
T1 construct: ZNRF1, RING E3 ubiquitin ligase, residues 139-227 of the full-length protein (ZnF and RING domains); also called ZNRF1 C-terminal domain; ZRNF1^CTD; source: E. coli Rossetta2 (DE3), purified (HisTrap, SEC)
T1 sequence (looked up): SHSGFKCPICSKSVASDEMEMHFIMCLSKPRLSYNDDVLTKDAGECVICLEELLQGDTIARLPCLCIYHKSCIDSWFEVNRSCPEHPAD

T2: ZNRF1 full-length (UniProt Q8ND25 1-227)
T2 construct: ZNRF1, RING E3 ubiquitin ligase, full-length (ends at residue 227); The C-terminal strep-tag II is called non-cleavable; also called ZNRF1^FL; source: E. coli Rossetta2 (DE3), purified (HisTrap, StrepTrap HP, desalted); not shown: strep-tag II, C-terminal, kept
T2 sequence (looked up): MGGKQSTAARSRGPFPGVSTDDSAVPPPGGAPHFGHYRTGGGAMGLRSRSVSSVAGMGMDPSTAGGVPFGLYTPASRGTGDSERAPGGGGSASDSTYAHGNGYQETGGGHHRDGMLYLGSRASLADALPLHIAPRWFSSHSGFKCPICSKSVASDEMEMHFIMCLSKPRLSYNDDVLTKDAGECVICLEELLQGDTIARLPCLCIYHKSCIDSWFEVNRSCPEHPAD

B1: Ube2N (enzyme, UniProt P61088 1-152, looked up)
chain: MAGLPRRIIKETQRLLAEPVPGIKAEPDESNARYFHVVIAGPQDSPFEGGTFKLELFLPEEYPMAAPKVRFMTKIYHPNVDKLGRICLDILKDKWSPALQIRTVLLSIQALLSAPNPDDPLANDVAEQWKTNEAQAIETARAWTRLYAMNNI
notes: Ube2N, ubiquitin-conjugating enzyme E2 N; also called wtUbe2N; source: E. coli Rossetta2 (DE3), purified (ion exchange, SEC)
B2: ZNRF1^RING (residues 166–227) (domain or fragment, UniProt Q8ND25 166-227, looked up)
chain: SKPRLSYNDDVLTKDAGECVICLEELLQGDTIARLPCLCIYHKSCIDSWFEVNRSCPEHPAD
notes: ZNRF1, RING E3 ubiquitin ligase, residues 166-227 (RING domain); also called RING domain of ZNRF1; source: E. coli Rossetta2 (DE3), purified (HisTrap, SEC)
B3: ZNRF1^(CTD, E183A) (domain or fragment, UniProt Q8ND25 139-227, looked up)
chain: SHSGFKCPICSKSVASDEMEMHFIMCLSKPRLSYNDDVLTKDAGACVICLEELLQGDTIARLPCLCIYHKSCIDSWFEVNRSCPEHPAD
notes: ZNRF1, RING E3 ubiquitin ligase, residues 139-227 with E183A; also called ZRNF1^CTD,E183A; E183A mutant; source: E. coli Rossetta2 (DE3), purified

How the values were obtained:
Conditions in all cases: both partners purified
[1] = molecular target: T1, ZNRF1^CTD (C-terminal domain of ZNRF1, …); experiment: ITC; ZNRF1^CTD in the cell, Ube2N in the syringe; 25°C; Na-phosphate pH 8.0, 450 mM NaCl; single site model
[2] = molecular target: T2, ZNRF1 full-length; experiment: ITC; ZNRF1 construct (10–30 µM) in the cell, E2 in the syringe; 25°C; 20 mM sodium phosphate pH 8.0, 150 mM NaCl; single site model
[3] = molecular target: B3; experiment: as above
[4] = molecular target: B2; experiment: as above
[5] = molecular target: T1, ZNRF1^CTD (C-terminal domain of ZNRF1, …); experiment: as above
[6] = molecular target: T1, ZNRF1^CTD (C-terminal domain of ZNRF1, …); experiment: ITC; ZNRF1^CTD in the cell, Ube2N in the syringe; 25°C; Na-phosphate pH 8.0, 300 mM NaCl; single site model
[7] = molecular target: B1; experiment: ITC; ZNRF1 construct (10–30 µM) in the cell, E2 in the syringe; 25°C; 20 mM sodium phosphate pH 8.0, 150 mM NaCl; single site model

Binder | dH [5] [kcal/mol] | stoichiometry N [5] | also measured
B1 | -10.5 | 0.915 | dH [1]: -9.26 kcal/mol; stoichiometry N [1]: 0.96; Kd [2]: 49.5 nM; dH [2]: -9.17 kcal/mol; stoichiometry N [2]: 0.842; dH [3]: -9.42 kcal/mol; stoichiometry N [3]: 0.848; dH [4]: -10.9 kcal/mol; stoichiometry N [4]: 0.913; dH [6]: -9.63 kcal/mol; stoichiometry N [6]: 0.984
Ube2N/Ube2V1 complex (complex, Ube2N, ubiquitin-conjugating enzyme E2 N; Ube2V1, ubiquitin-conjugating enzyme E2 variant 1; also called Ube2N/V1; source: E. coli Rossetta2 (DE3), each purified, mixed in stoichiometric amounts, complex isolated by SEC) chain 1: MAGLPRRIIKETQRLLAEPVPGIKAEPDESNARYFHVVIAGPQDSPFEGGTFKLELFLPEEYPMAAPKVRFMTKIYHPNVDKLGRICLDILKDKWSPALQIRTVLLSIQALLSAPNPDDPLANDVAEQWKTNEAQAIETARAWTRLYAMNNI chain 2: not shown | -10.2 | 1.04 | –
Ube2N^R14D (enzyme, UniProt P61088 1-152, looked up, Ube2N, ubiquitin-conjugating enzyme E2 N, with R14D; source: E. coli Rossetta2 (DE3), purified (ion exchange, SEC)) MAGLPRRIIKETQDLLAEPVPGIKAEPDESNARYFHVVIAGPQDSPFEGGTFKLELFLPEEYPMAAPKVRFMTKIYHPNVDKLGRICLDILKDKWSPALQIRTVLLSIQALLSAPNPDDPLANDVAEQWKTNEAQAIETARAWTRLYAMNNI | -8.38 | 0.966 | –
Ube2N^R14A (enzyme, UniProt P61088 1-152, looked up, Ube2N, ubiquitin-conjugating enzyme E2 N, with R14A; source: E. coli Rossetta2 (DE3), purified (ion exchange, SEC)) MAGLPRRIIKETQALLAEPVPGIKAEPDESNARYFHVVIAGPQDSPFEGGTFKLELFLPEEYPMAAPKVRFMTKIYHPNVDKLGRICLDILKDKWSPALQIRTVLLSIQALLSAPNPDDPLANDVAEQWKTNEAQAIETARAWTRLYAMNNI | -8.69 | 0.958 | –
B2 | – | – | Kd [7]: 49.4 nM
B3 | – | – | Kd [7]: 459 nM
Ube2N^R14E (enzyme, UniProt P61088 1-152, looked up, Ube2N, ubiquitin-conjugating enzyme E2 N, with R14E; source: E. coli Rossetta2 (DE3), purified (ion exchange, SEC)) MAGLPRRIIKETQELLAEPVPGIKAEPDESNARYFHVVIAGPQDSPFEGGTFKLELFLPEEYPMAAPKVRFMTKIYHPNVDKLGRICLDILKDKWSPALQIRTVLLSIQALLSAPNPDDPLANDVAEQWKTNEAQAIETARAWTRLYAMNNI | -8.54 | 0.854 | –
Ube2N^A98T (enzyme, UniProt P61088 1-152, looked up, Ube2N, ubiquitin-conjugating enzyme E2 N, with A98T; source: E. coli Rossetta2 (DE3), purified (ion exchange, SEC)) MAGLPRRIIKETQRLLAEPVPGIKAEPDESNARYFHVVIAGPQDSPFEGGTFKLELFLPEEYPMAAPKVRFMTKIYHPNVDKLGRICLDILKDKWSPTLQIRTVLLSIQALLSAPNPDDPLANDVAEQWKTNEAQAIETARAWTRLYAMNNI | -9.62 | 1.05 | –
Ube2N^S96R (enzyme, UniProt P61088 1-152, looked up, Ube2N, ubiquitin-conjugating enzyme E2 N, with S96R; source: E. coli Rossetta2 (DE3), purified (ion exchange, SEC)) MAGLPRRIIKETQRLLAEPVPGIKAEPDESNARYFHVVIAGPQDSPFEGGTFKLELFLPEEYPMAAPKVRFMTKIYHPNVDKLGRICLDILKDKWRPALQIRTVLLSIQALLSAPNPDDPLANDVAEQWKTNEAQAIETARAWTRLYAMNNI | -5.64 | 0.828 | –
